Results published in patent US20040077522A1 (published 2004).

B1: Deinococcus radiodurans LuxS (enzyme)
chain: MPDMANVESFDLDHTKVKAPYVRLAGVKTTPKGDQISKYDLRFLQPNQGAIDPAAIHTLEHLLAGYMRDHLEGVVDVSPMGCRTGMYMAVIGEPDEQGVMKAFEAALKDTAGHDQPIPGVSELECGNYRDHDLAAARQHARDVLDQGLKVQETILLERGSHHHHHH
modifications: selenomethionine in place of methionine (SeMet protein used for the crystals)
notes: Open reading frame amplified from D. radiodurans ATCC 13939D genomic DNA and expressed in E. coli with 8 added C-terminal residues; The same protein gave several crystal forms: P21 has a non-crystallographic dimer in the asymmetric unit, and C2 has a crystallographic dimer; also called D. radiodurans LuxS; Deinococcus radiodurans wtLuxS
B2: Haemophilus influenzae LuxS (enzyme)
chain: MPLLDSFKVDHTKMNAPAVRIAKTMLTPKGDNITVFDLRFCIPNKEILSPKGIHTLEHLFAGFMRDHLNGDSIEIIDISPMGCRTGFYMSLIGTPNEQKVSEAWLASMQDVLGVQDQASIPELNIYQCGSYTEHSLEDAHEIAKNVIARGIGVNKNEDLSLDNSLLKGSHHHHHH
modifications: selenomethionine in place of methionine (SeMet protein used for the crystals)
notes: Open reading frame amplified from H. influenzae ATCC 51907D genomic DNA and expressed in E. coli with 8 added C-terminal residues; Homodimer in the crystal (two molecules in the asymmetric unit); also called H. influenzae LuxS; Haemophilus influenzae wtLuxS
B3: Helicobacter pylori LuxS (enzyme)
chain: MKMNVESFNLDHTKVKAPYVRIADRKKGVNGDLIVKYDVRFKQPNRDHMDMPSLHSLEHLVAEIIRNHANYVVDWSPMGCQTGFYLTVLNHDNYTEILEVLEKTMQDVLKAKEVPASNEKQCGWAANHTLEGAQNLARAFLDKRAEWSEVGVGSHHHHHH
modifications: selenomethionine in place of methionine (SeMet protein used for the crystals)
notes: Open reading frame amplified from H. pylori ATCC 43504D genomic DNA and expressed in E. coli with 8 added C-terminal residues; Homodimer in the crystal (two molecules, A and B, in the asymmetric unit); also called H. pylori LuxS; Helicobacter pylori wtLuxS

Target: the molecule itself
Experiment: X-ray crystal structure, homodimer interface

Going from B1 to B2, the “surface area buried through the dimer interaction” value rises from 3930 Å^2 to 4160 Å^2.

In the case of B3, the “surface area buried through the dimer interaction” value is reported as 4180 Å^2.
